Source: the RNAGym collection of RNA variant scans (doi:10.7554/elife.80360)

B1: Hammerhead Ribozyme (parent)
chain: ACCGGAUGUGCUUUCCGGUCUGAUGAGUCCGUGAGGACGAAACAG

Variants of: B1
Assay: self-cleavage, relative activity (ratio to wild type); higher = more cleavage; co-transcriptional

Variant	self-cleavage
U7C U12G	1.43
U7C U12A	1.42
U7C U12C	1.09
U7G A42G	0.33
U7G A42U	0.326
U7G A42C	0.271
U7A U32A	1.38
U7A U32G	1.07
U7A U32C	0.797
U7C G10C	0.781
U7C G10A	1.02
U7C G10U	1.12
U7G G39C	0.293
U7G G39A	0.369
U7G G39U	0.365
U7C U24G	0.742
U7C U24C	1.24
U7C U24A	1.4
U7C U14G	0.975
U7C U14C	0.585
U7C U14A	1.26
U7G U9A	1.19
U7G U9C	1.18
U7G U9G	1.35

Variant	self-cleavage
U7C G36U	0.422
U7C G36A	0.421
U7C G36C	0.348
U7A C29G	0.663
U7A C29A	0.511
U7A C29U	0.823
U7A C38G	0.431
U7A C38U	1.27
U7A C38A	0.49
U7G C15A	0.89
U7G C15U	1.26
U7G C15G	0.699
U7G G45A	0.559
U7G G45U	0.526
U7G G45C	0.441
U7C G31A	1.12
U7C G31C	0.803
U7C G31U	1.1
U7A U12A	1.55
U7A U12G	1.33
U7A U12C	0.79
U7G C38G	0.521
U7G C38U	1.4
U7G C38A	0.502

Variant	self-cleavage
U7G A26U	0.717
U7G A26G	0.289
U7G A26C	0.265
U7G U13C	1.45
U7G U13G	1.67
U7G U13A	1.66
U7A G10A	1.33
U7A G10U	1.44
U7A G10C	1.34
U7C G18U	0.61
U7C G18C	0.342
U7C G18A	0.438
U7A C15U	1.04
U7A C15A	0.852
U7A C15G	0.987
U7C U9A	0.524
U7C U9C	1.28
U7C U9G	0.667
U7G A44C	0.411
U7G A44G	1.82
U7G A44U	0.422
U7G U12C	1.42
U7G U12A	1.24
U7G U12G	1.23

Variant	self-cleavage
U7C U19G	0.413
U7C U19A	0.397
U7C U19C	0.526
U7G C20U	0.447
U7G C20A	0.359
U7G C20G	0.386
U7A G33C	1.44
U7A G33U	1.14
U7A G33A	1.45
U7C U21C	0.403
U7C U21A	0.327
U7C U21G	0.449
U7A U21A	0.359
U7A U21C	0.628
U7A U21G	0.319
U7A G27C	0.449
U7A G27U	0.32
U7A G27A	0.66
U7G U14C	0.944
U7G U14G	0.831
U7G U14A	1.46
U7C A42C	0.3
U7C A42U	0.312
U7C A42G	0.306

Variant	self-cleavage
U7C C43G	0.346
U7C C43U	0.25
U7C C43A	0.309
U7G C43A	0.382
U7G C43U	0.389
U7G C43G	0.427
U7A C20G	0.376
U7A C20U	0.345
U7A C20A	0.298
U7C G8U	1.38
U7C G8C	0.961
U7C G8A	0.95
U7C G17C	0.314
U7C G17U	0.625
U7C G17A	0.32
U7G U21A	0.345
U7G U21G	0.426
U7G U21C	0.641
U7C G33A	1.15
U7C G33C	0.963
U7C G33U	0.755
U7C U13C	1.4
U7C U13G	0.7
U7C U13A	1.22

Variant	self-cleavage
U7G G33U	1.32
U7G G33A	1.34
U7G G33C	1.23
U7C A41C	0.34
U7C A41U	0.336
U7C A41G	0.322
U7G A34C	1.44
U7G A34G	1.67
U7G A34U	1.53
U7C C29A	0.685
U7C C29U	0.992
U7C C29G	0.514
U7G U28C	1.36
U7G U28G	0.502
U7G U28A	0.991
U7A A37G	0.907
U7A A37U	0.497
U7A A37C	1.12
U7G G35U	0.911
U7G G35A	0.654
U7G G35C	0.979
U7C G39A	0.469
U7C G39U	0.426
U7C G39C	0.331

Variant	self-cleavage
U7G A37C	1.29
U7G A37U	0.683
U7G A37G	0.928
U7G C30A	1.21
U7G C30U	1.34
U7G C30G	1.19
U7C	1.05
U7G	1.37
U7C C15G	0.667
U7C C15A	0.737
U7C C15U	0.995
U7C C38U	0.929
U7C C38G	0.533
U7C C38A	0.702
U7A U19A	0.377
U7A U19C	0.402
U7A U19G	0.25
U7A U9C	1.04
U7A U9A	0.874
U7A U9G	1.32
U7G G36C	0.557
U7G G36A	0.624
U7G G36U	0.735
U7C A23U	0.339

Variant	self-cleavage
U7C A23G	0.454
U7C A23C	0.356
U7C A26G	0.305
U7C A26U	0.48
U7C A26C	0.373
U7G G10C	1.74
U7G G10A	1.72
U7G G10U	1.46
U7A G8U	1.52
U7A G8C	1.21
U7A G8A	1.23
U7C A34U	0.995
U7C A34G	0.863
U7C A34C	1.16
U7G G17A	0.666
U7G G17U	0.548
U7G G17C	0.552
U7C A40C	0.418
U7C A40G	0.382
U7C A40U	0.373
U7A C43G	0.237
U7A C43A	0.317
U7A C43U	0.302
U7C A44U	0.582

Variant	self-cleavage
U7C A44C	0.631
U7C A44G	1.13
U7C C11U	0.433
U7C C11A	1.37
U7C C11G	1.37
U7A A40G	0.298
U7A A40C	0.261
U7A A40U	0.244
U7C U32G	0.626
U7C U32C	0.949
U7C U32A	1.02
U7A G36U	0.585
U7A G36A	0.681
U7A G36C	0.394
U7A A42G	0.216
U7A A42C	0.358
U7A A42U	0.257
U7A A41C	0.407
U7A A41G	0.368
U7A A41U	0.258
U7C C30A	0.736
U7C C30U	0.842
U7C C30G	1.09
U7A G39C	0.321

Variant	self-cleavage
U7A G39A	0.27
U7A G39U	0.289
U7C G22C	0.338
U7C G22U	0.289
U7C G22A	0.387
U7G A41G	0.408
U7G A41U	0.342
U7G A41C	0.422
U7G G18U	0.46
U7G G18A	0.807
U7G G18C	0.464
U7A U13G	1.29
U7A U13C	1.43
U7A U13A	1.42
U7G G31U	1.18
U7G G31A	1.25
U7G G31C	0.968
U7A G31A	1.28
U7A G31C	1.28
U7A G31U	1.26
U7A U24G	0.882
U7A U24A	1.26
U7A U24C	0.976
U7G C11G	1.52

Variant	self-cleavage
U7G C11U	1.12
U7G C11A	1.6
U7C C16A	0.738
U7C C16G	0.487
U7C C16U	1.06
U7G U24G	1.92
U7G U24A	1.4
U7G U24C	1.23
U7G A40C	0.396
U7G A40G	0.291
U7G A40U	0.401
U7G C29A	0.642
U7G C29G	0.488
U7G C29U	1.02
U7G U19G	0.304
U7G U19C	0.512
U7G U19A	0.398
U7A A44C	0.397
U7A A44U	0.375
U7A A44G	1.46
U7A G25U	0.281
U7A G25A	0.32
U7A G25C	0.279
U7G G25C	0.363

Variant	self-cleavage
U7G G25A	0.272
U7G G25U	0.333
U7C G35C	0.849
U7C G35A	0.732
U7C G35U	0.439
U7C G27U	0.412
U7C G27C	0.598
U7C G27A	0.814
U7A A34G	1.07
U7A A34U	1.22
U7A G17A	0.498
U7A G17C	0.481
U7A G17U	0.524
U7C G25A	0.402
U7C G25U	0.312
U7C G25C	0.319
U7G G22U	0.369
U7G G22C	0.389
U7G G22A	0.33
U7A G22A	0.291
U7A G22C	0.309
U7A G22U	0.231
U7A U14G	1.14
U7A U14C	1.17

Variant	self-cleavage
U7A U14A	1.15
U7G C16A	0.989
U7G C16U	1.4
U7G C16G	0.765
U7A C11U	1.4
U7A C11A	1.55
U7A C11G	1.52
U7C C20A	0.5
U7C C20G	0.306
U7C C20U	0.492
U7C A37U	0.621
U7C A37C	0.828
U7C A37G	0.771
U7C G45A	0.653
U7C G45U	0.622
U7C G45C	0.454
U7A C16U	1.17
U7A C16G	0.851
U7A C16A	1.29
U7G G8U	1.36
U7G G8A	1.29
U7G G8C	1.37
U7A G18U	0.569
U7A G18C	0.365

Variant	self-cleavage
U7A G18A	0.539
U7A G45U	0.484
U7A G45A	0.427
U7A G45C	0.566
U7A G35A	0.687
U7A G35U	0.751
U7A G35C	0.707
U7G G27C	0.763
U7G G27A	0.81
U7G G27U	0.511
U7C U28A	0.504
U7C U28C	0.792
U7C U28G	0.538
U7G A23C	0.243
U7G A23G	0.273
U7G A23U	0.228
U7A U28G	0.758
U7A U28C	1.26
U7A U28A	0.77
U7A C30U	1.05
U7A C30A	1.09
U7A C30G	1.05
